The values below come from US20240325562A1, “INTERNALIZING BINDING MOLECULES” (LinXis B.V., priority 2020, published 2024).

One data set concerns the target hPDGFRB (Homo sapiens, UniProt P09619). The data set is described as follows: Competition assays of PDGFRB VHHs on hPDGFRB. It is filed as binding. Conditions: IRDye800-conjugated SP26P as reporter. On the procedure:
(§1) Biparatopic VHH constructs contain two VHH which bind to a different epitope, i.e. which are non-competitive binders. To identify (a) pair(s) of non-competitive binders, competition assays were performed. In the example shown, an Alexa fluor-conjugate of the high affine VHH 13F11 was used as the reporter VHH (13F11-A647, see example 10.2). In the assay, a non-saturating amount (10 nM) of 13F11-A647 was incubated with immobilized hIGF2R-ECD in the presence or absence of 250 nM unconjugated competitor VHH to allow competition to take place.
(§2) Similar as to in example 6.1, competition assays were performed to identify unique hPDGFRB- or rPDGFRB binders. Across 10 PDGFRB-binding VHHs obtained from libraries 1 and 2 (e.g. the VHH raised against hPDGFRB), four main groups were identified being first SP01P, SP02P, SP07P and SP13P, second SP05P, SP08P and SP10P, third SP12P and SP20P and finally SP14P. All VHH within each of the first three groups mutually competed.
To evaluate whether the obtained VHHs would qualify as building blocks for multivalent VHH constructs that bind hPDGFRB as well as rPDGFRB (e.g. ‘species cross-reactive’ VHH constructs), competition assays were performed using the most promising VHHs SP02 (raised against hPDGFRB) and SP26P (raised against rPDGFRB).

A further data set has as its target rPDGFRB (Rattus norvegicus, UniProt Q05030). The data set is described as follows: Competition assays of PDGFRB VHHs on rPDGFRB. It counts as binding. The note with it: VHHs from libraries 3 and 4. On the procedure: as §1, §2
The target of the next data set is T1, PDGFRB (Rattus norvegicus, UniProt Q05030).
T1 construct: from tissue; host or cells: cryo-sections of rat tissues (liver, kidney, spleen, heart, ileum, brain) of BDL and SHAM rats
The experiment in a line: Staining of rat tissue cryo-sections for PDGFRB. The note with it: 50 nM, overnight 4° C. The method, then:
To evaluate whether SP02-SP26-ABD bound to PDGFRB as (over-) expressed in the cirrhotic liver, various cryo-sections of tissues (liver, kidney, spleen, heart, ileum, brain) obtained from both healthy (SHAM) and cirrhotic (BDL) rats (preparation procedure as outlined in example 15) were stained with SP02-SP26-ABD conjugated to Alexa Fluor 647 (SP02-SP26-ABD-A647, conjugation method as described in example 10.2.). Staining was performed with 50 nM SP02-SP26-ABD-AF647 during overnight incubation at 4° C. Subsequently, the sections were washed and stained with DAPI, mounted with mowiol mounting medium (Merck), and imaged on a Zeiss LSM700 laser scanning confocal microscope with a 20× objective. […] In the tissues other than the liver, no upregulation of PDGFRB was observed.

Another data set concerns the target hPDGFRB-ECD (Homo sapiens, UniProt P09619). The experiment in a line: Binding assay on hPDGFRB-ECD. Conditions: biparatopic constructs, FIG. 15A. On the procedure: The 15 unique hIGF2R-binding VHH (Example 2.1, FIG. 2) were produced and purified as described in examples 3 and 4. The apparent affinities were determined through binding assay on immobilized hIGF2R-ECD. Briefly, three-fold serial dilution series, starting from 1 μM, of each VHH were plated onto hIGF2R-ECD coated plates. VHH were allowed to bind for two hours after which plates were washed. Then, bound VHH was detected using a VHH-specific IgG antibody, followed by an IRD800CW-conjugated IgG-specific antibody. Plates were read out by fluorimetry.
The 18 unique hPDGFRB binders from libraries 1 and 2, and the 11 unique rPDGFRB binders from libraries 3 and 4 (Example 2.2, FIGS. 5 and 6) were produced and purified as described in examples 3 and 4. Then, the apparent affinities were determined with binding assays on hPDGFRB-ECD and rPDGFRB-ECD, respectively, the setup described in example 5.1. Results are summarized in FIGS. 5 and 6 for the hPDGFRB and rPDGFRB VHHs, respectively.
(§3) Based on their high affinity and binding to non-overlapping hPDGRB epitopes, various biparatopic constructs were prepared based on VHHs SP02P, SP12P SP14P, SP26P and SP28P. The constructs were produced as described in example 7.1. and subjected to binding assay.
As Shown in FIG. 15C), the binding affinity of this construct for both hPDGFRB and rPDGFRB are below 5 nM. […]

Data set [1] addresses T2, hPDGFRB (SCC-hPDGFRB cells) (Homo sapiens, UniProt P09619).
T2 construct: SCC VII cells transgenically expressing full-length human PDGFRB (SCC-hPDGFRB); expressed in transfected cells; host or cells: murine SCC VII cells
The experiment in a line: Binding to cells transgenically expressing human PDGFRB. On the procedure:
(§4) High affine binders to hPDGFRB-ECD or rPDGFRB-ECD were subsequently assessed for binding to SCC VII cells transfected with hPDGFRB and rPDGFRB, respectively.
as §3
(§5) As Shown in FIG. 15C), the binding affinity of this construct for both hPDGFRB and rPDGFRB are below 5 nM. […] These observations make SP02P (or similar VHH) and SP26P (or similar VHH) particularly promising for use in the present invention.

In data set [2] the target is T3, rPDGFRB (SCC-rPDGFRB cells) (Rattus norvegicus, UniProt Q05030).
T3 construct: SCC VII cells transgenically expressing full-length rat PDGFRB (SCC-rPDGFRB); expressed in transfected cells; host or cells: murine SCC VII cells
The experiment in a line: Binding to cells transgenically expressing rat PDGFRB. The method, then:
as §4, §3, §5

For data set [3], the system named is primary activated rat hepatic stellate cells (HSCs). The experiment in a line: Binding to primary activated rat hepatic stellate cells. Conditions: Alexa Fluor 488 conjugate; HSCs from BDL rat, 6 days in culture. It counts as cell-based. The source says: The cross-reactivity of F11-E8-ABD was further evaluated in binding experiments to primary activated rat hepatic stellate cells (HSCs). For this, the construct was conjugated to Alexa Fluor 488 according to the methods described in example 10.2. Activated HSCs were obtained from a perfused liver of a cirrhotic bile duct ligated (BDL) rat through density gradient centrifugation. Cells were kept in culture for 6 days to allow complete activation. […] Simultaneously, binding of the VHH construct to the activated cells was evident, further confirming species cross-reactivity of the construct.

Data set [4] is described as follows: In vivo pharmacokinetics in rats, serum ELISA on hIGF2R-ECD. More on the design: species or system Sprague-Dawley rats. On the procedure:
(§6) The in vivo pharmacokinetic properties of 13F11-13E8-ABD (F11E8-ABD; with ABD) and 13F11-13E8 (F11E8; without ABD) were compared in healthy Sprague-Dawley rats. In brief, rats were dosed intravenously with approximately 3 mg/kg body weight and blood samples were taken at different time points and the concentration of the VHH constructs were determined using an ELISA on immobilized hIGF2R-ECD. […] To further confirm the functionality of the ABD, biodistribution of F11E8-ABD and F11E8 were assessed by means of Positron Emission Tomography (PET). In brief, the constructs were radio-labelled with the positron emitter ^89Zr-desferral according to Verel et al (J Nucl Med. 2003; 44:1271-1281), and administered intravenously to rats after which biodistribution was assessed on subsequent time points by whole-body PET.

A short description of data set [5]: Biodistribution by whole-body PET of 89Zr-labelled constructs. Conditions: 89Zr-desferral labelled, i.v., rats. It is filed as in vivo. On the procedure:
as §6

The target in a further data set is T4, IGF2R (Rattus norvegicus, UniProt G3V824).
T4 construct: from tissue; host or cells: cryo-sections of rat tissues (liver, kidney, spleen, heart, ileum, brain); Sprague-Dawley BDL and SHAM rats
The data set is described as follows: Staining of rat tissue cryo-sections for IGF2R. Conditions: 50 nM, overnight 4° C. The method, then: To evaluate whether F11E8-ABD bound to IGF2R as (over-) expressed in the cirrhotic liver, various cryo-sections of tissues (liver, kidney, spleen, heart, ileum, brain) obtained from both healthy (SHAM) and cirrhotic (BDL) rats (preparation procedure as outlined in example 15) were stained with 13F11-13E8-ABD conjugated to Alexa Fluor 647 (13F11-13E8-ABD-A647, conjugation method as described in example 10.2.). Staining was performed with 50 nM 13F11-13E8-ABD-AF647 during overnight incubation at 4° C. Subsequently, the sections were washed and stained with DAPI, mounted with mowiol mounting medium (Merck) and imaged on a Zeiss LSM700 laser scanning confocal microscope with a 20× objective. […] In the tissues other than the liver, no upregulation of IGF2R was observed.

Where only a bound is given, the exact number is not on record here.

T1 sequence (Q05030 32-1097): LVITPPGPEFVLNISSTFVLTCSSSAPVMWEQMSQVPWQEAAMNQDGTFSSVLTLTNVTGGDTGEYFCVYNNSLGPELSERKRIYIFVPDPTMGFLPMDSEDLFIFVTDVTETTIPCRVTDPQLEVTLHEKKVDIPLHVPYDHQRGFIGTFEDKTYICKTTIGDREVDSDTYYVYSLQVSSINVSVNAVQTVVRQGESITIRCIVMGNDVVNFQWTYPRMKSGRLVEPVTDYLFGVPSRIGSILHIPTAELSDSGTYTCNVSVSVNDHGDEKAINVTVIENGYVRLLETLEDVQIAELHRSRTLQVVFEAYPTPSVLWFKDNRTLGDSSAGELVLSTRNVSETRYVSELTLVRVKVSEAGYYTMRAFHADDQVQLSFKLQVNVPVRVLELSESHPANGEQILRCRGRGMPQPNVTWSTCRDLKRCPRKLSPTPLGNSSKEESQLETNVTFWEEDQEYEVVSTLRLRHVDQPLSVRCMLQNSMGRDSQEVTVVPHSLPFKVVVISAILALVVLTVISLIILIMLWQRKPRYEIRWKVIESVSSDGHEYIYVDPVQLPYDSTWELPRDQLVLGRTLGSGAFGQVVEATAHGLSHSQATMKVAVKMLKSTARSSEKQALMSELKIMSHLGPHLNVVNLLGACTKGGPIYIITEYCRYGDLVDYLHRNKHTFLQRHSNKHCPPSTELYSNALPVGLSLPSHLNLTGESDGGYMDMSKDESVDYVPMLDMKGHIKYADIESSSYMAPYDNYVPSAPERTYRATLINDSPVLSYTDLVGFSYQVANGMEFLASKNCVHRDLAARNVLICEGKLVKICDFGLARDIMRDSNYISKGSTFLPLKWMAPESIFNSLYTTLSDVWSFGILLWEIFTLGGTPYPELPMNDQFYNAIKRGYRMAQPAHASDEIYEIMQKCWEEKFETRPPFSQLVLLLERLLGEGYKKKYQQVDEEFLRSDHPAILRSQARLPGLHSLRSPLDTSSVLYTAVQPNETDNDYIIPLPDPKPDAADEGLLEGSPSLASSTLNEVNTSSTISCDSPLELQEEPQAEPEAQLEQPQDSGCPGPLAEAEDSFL
T4 sequence (G3V824 36-2481): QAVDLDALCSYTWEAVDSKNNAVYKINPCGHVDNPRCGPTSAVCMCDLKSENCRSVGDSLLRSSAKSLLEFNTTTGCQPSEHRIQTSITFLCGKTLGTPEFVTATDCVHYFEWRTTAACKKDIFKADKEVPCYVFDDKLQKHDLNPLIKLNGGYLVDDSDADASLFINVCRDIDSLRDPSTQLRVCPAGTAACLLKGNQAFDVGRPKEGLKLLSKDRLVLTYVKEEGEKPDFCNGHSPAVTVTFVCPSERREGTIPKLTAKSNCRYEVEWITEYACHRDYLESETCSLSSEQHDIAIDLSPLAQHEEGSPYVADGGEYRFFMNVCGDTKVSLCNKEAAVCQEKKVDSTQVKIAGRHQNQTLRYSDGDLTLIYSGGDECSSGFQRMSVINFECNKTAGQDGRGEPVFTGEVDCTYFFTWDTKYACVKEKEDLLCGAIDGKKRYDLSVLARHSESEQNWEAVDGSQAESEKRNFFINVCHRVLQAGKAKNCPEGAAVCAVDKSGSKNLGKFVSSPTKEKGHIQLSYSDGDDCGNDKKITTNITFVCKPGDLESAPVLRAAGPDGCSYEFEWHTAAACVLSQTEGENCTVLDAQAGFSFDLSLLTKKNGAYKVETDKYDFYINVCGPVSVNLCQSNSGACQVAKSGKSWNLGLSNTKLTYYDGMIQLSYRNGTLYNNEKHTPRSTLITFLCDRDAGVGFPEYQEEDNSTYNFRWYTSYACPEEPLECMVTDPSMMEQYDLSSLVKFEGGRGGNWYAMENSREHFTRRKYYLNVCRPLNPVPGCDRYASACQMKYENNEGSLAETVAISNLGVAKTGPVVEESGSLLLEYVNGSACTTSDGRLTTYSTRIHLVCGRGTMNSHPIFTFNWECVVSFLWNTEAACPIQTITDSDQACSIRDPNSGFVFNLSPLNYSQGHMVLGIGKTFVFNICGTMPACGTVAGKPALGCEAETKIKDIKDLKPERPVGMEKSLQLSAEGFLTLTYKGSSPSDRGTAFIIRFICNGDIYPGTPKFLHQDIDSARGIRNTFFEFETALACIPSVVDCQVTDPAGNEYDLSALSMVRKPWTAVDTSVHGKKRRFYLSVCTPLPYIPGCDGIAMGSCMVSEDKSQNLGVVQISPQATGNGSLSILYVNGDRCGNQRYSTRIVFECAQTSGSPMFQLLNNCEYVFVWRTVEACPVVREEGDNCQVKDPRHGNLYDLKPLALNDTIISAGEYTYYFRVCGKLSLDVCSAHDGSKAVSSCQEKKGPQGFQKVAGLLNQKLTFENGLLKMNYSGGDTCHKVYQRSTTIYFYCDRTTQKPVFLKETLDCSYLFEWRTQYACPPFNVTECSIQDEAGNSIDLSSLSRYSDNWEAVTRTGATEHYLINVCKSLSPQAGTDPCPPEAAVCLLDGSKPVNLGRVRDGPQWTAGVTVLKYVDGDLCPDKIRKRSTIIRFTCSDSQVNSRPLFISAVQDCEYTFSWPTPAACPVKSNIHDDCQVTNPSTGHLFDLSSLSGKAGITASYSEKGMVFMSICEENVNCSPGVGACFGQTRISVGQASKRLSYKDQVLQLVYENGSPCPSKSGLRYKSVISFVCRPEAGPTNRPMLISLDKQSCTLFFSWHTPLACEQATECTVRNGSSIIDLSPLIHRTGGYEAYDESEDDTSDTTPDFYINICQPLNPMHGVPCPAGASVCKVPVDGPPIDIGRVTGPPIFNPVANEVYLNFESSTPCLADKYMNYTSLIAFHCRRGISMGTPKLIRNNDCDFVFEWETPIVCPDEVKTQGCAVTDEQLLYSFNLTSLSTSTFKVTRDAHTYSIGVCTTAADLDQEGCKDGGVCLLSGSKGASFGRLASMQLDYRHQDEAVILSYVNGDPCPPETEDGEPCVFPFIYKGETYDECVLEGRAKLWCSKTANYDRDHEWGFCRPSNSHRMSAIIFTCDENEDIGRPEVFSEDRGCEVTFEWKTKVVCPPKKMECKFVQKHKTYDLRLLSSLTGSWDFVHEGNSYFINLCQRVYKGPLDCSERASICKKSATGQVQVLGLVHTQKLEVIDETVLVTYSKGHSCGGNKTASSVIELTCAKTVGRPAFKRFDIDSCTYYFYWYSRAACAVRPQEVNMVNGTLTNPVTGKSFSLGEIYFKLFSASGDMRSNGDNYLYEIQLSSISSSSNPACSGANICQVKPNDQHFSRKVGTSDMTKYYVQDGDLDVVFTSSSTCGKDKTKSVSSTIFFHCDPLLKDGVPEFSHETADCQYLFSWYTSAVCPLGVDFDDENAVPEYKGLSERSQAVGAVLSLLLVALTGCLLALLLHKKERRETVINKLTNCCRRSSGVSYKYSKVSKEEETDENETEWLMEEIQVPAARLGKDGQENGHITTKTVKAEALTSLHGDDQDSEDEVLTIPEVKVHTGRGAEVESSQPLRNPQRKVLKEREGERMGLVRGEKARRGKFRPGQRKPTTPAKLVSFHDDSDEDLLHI
T2 sequence (P09619 33-1106): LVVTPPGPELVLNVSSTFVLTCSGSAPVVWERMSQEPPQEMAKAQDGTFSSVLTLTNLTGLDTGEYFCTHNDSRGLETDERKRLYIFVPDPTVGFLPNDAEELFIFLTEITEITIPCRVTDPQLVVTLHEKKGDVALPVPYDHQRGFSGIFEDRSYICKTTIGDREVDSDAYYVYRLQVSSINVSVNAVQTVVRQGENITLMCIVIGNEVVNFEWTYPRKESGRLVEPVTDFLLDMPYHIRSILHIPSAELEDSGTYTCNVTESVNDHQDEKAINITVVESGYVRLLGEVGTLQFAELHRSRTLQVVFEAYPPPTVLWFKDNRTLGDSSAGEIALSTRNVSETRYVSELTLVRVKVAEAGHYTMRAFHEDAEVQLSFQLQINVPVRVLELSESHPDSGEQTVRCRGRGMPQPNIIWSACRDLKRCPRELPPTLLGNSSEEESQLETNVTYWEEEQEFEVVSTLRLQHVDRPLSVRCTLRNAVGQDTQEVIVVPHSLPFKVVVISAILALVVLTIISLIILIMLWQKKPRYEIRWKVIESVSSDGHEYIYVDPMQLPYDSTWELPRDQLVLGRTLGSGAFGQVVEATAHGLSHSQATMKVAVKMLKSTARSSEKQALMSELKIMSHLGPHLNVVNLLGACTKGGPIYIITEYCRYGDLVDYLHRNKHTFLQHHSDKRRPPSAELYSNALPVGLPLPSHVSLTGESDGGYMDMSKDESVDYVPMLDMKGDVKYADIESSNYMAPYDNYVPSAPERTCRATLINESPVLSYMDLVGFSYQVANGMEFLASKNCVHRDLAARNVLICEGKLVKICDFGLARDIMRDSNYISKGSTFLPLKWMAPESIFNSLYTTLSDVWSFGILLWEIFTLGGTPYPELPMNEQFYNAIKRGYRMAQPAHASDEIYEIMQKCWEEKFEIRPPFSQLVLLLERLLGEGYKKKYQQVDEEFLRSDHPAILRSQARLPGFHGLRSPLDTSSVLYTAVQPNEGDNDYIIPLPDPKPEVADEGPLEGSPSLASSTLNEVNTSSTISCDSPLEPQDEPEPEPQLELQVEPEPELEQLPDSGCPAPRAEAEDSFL
Chain of hPDGFRB (P09619 33-532 limits assumed): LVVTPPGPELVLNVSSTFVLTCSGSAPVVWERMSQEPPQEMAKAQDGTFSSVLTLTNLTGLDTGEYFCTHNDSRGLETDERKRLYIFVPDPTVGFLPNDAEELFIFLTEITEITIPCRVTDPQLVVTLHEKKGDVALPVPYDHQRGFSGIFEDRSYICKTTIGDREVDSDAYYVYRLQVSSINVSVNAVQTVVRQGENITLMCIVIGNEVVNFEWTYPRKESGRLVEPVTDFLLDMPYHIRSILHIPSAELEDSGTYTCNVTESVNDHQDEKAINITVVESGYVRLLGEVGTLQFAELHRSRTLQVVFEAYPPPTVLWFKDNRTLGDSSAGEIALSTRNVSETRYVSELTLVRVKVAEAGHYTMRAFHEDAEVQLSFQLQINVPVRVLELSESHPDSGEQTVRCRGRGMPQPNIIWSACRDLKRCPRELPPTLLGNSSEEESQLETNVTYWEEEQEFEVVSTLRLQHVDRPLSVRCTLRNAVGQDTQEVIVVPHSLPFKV
Chain of hPDGFRB-ECD (P09619 33-532 limits assumed): as above

B1: SP26P: VHH single domain antibody targeting PDGFRB, SEQ ID NO: 153 (protein)
VHH: EVQLVESGGGLVQAGGSLRLSCAASGRSFSSSVMGWFRQTPGKEREFVAATRWTAASTHYADSVKGRFTISRDHAENAVFLQMNSLKPEDTAVYYCAAGNYLDTAQYRYNYWGQGTQVTVSS
With B1, the “competition between SP02 and SP26P” value in the data set with hPDGFRB is listed as “did not compete”. The “epitope compared to SP27P, SP28P, SP30P, SP31P and SP36P” value in the data set with rPDGFRB is “unique epitope”.

B2: SP02-SP26-ABD-AF647: SP02-SP26-ABD conjugated to Alexa Fluor 647 (conjugate)
chain: EVQLVESGGGLVQAGGSLRLSCAASESISSIEQMGWFRQAPGKQRALVAINTYGGRTVYTNSVEGRFTMSRDSAKNMVYLQMTSLEPEDTAVYYCYAQTTAWRGGVWGQGTQVTVSSGGGGSGGGGSGGGGSEVQLVESGGGLVQAGGSLRLSCAASGRSFSSSVMGWFRQTPGKEREFVAATRWTAASTHYADSVKGRFTISRDHAENAVFLQMNSLKPEDTAVYYCAAGNYLDTAQYRYNYWGQGTQVTVSS
modifications: left off: large carriers; small tags and cut ends
Turning to B2, in the data set with PDGFRB, the “staining of cirrhotic (BDL) rat liver” value is reported as “strongly stains activated fibroblasts” and the “staining of normal (SHAM) rat liver” value was “only background signal was detected”.

B3: SP26P-SP28P: biparatopic construct based on VHH raised against rPDGFRB (protein)
chain: EVQLVESGGGLVQAGGSLRLSCAASGSIVSFNGINWYRQAPGKQREWVGGITQGGNTMYADSVRGRFTISRDNTKNTMYLQMNSLKPEDTAVYYCRRPPVASWGQGTQVTVSSGGGGSGGGGSGGGGSEVQLVESGGGLVQAGGSLRLSCAASGRSFSSSVMGWFRQTPGKEREFVAATRWTAASTHYADSVKGRFTISRDHAENAVFLQMNSLKPEDTAVYYCAAGNYLDTAQYRYNYWGQGTQVTVSS
modifications: left off: small tags and cut ends
notes: biparatopic construct based on VHH raised against rPDGFRB
For the molecule B3, the “affinity for hPDGFRB” value with hPDGFRB-ECD is “lowest affinity”. For the same molecule, the “affinity for hPDGFRB on cells” value in data set [1] is on record as “low affinity”. Besides, the “affinity for rPDGFRB on cells” value in [2] is reported as “high affinity”.

B4: 13F11-13E8-ABD: 13F11-13E8 re-engineered to include an albumin binding domain (ABD) as half-life extender (protein)
chain: EVQLVESGGRLVQPGDSLRLSCAASGRTFSDNAMGWFRQAPGKERRFVAGISWAGGSTYYSDSVKGRFTISRDNAKNTVYLQMNSLKPEDTAVYYCAAGLRAWVQRMPKDYNYWGQGTQVTVSSGGGGSGGGGSGGGGSEVQLVESGGGLVQAGGSLRLSCAASRSISPMGWYRQAPGKQRELVAIMPSSGPPIYADSVQGRFTISRDNAKNTVYLQMNSLKPEDTAVYYCNVGGGYWGQGTQVTVSS
modifications: left off: large carriers; small tags and cut ends
By Cmax is commonly meant the highest concentration seen after dosing. In the case of B4, the “binding to activated HSCs” value in data set [3] is listed as “evident”. Besides, the “infused dose still in circulation” value in data set [4] (one hour after dosing, approximately 20 nmoles infused, estimated serum volume 10 mL) is reported as “approximately 50%”. Further, the Cmax in data set [4] (rats, i.v., approximately 3 mg/kg, read-out: peak serum level (Cmax)) was greater than 1000 nM. Further, in data set [5], the “biodistribution (PET)” value was “accumulate in the liver”.

B5: 13F11-13E8-ABD-AF647: 13F11-13E8-ABD conjugated to Alexa Fluor 647 (conjugate)
chain: B4 chain
modifications: left off: large carriers; small tags and cut ends
For B5, in the data set with IGF2R, the “staining of cirrhotic (BDL) rat liver” value was “strongly stains activated fibroblasts” and the “staining of normal (SHAM) rat liver” value is given as “only background signal was detected”.
